The test system of one experiment is HEK293 parental cells. Kind of experiment: FACS cell surface binding. Details: species or system human. The procedure: (§1) The ability of anti-PRLR antibodies to selectively bind PRLR expressing cell lines was next determined. Human, monkey Macaca fascicularis, and mouse PRLR constructs with an HA tag were stably introduced into HEK293 cells via Lipofectamine 2000-mediated transfection methodology. Transfectants (HEK293/hPRLR, HEK293/mfPRLR and HEK293/mPRLR) were selected for at least 2 weeks in complete growth media plus G418.
(§2) Cell surface expression of PRLR on 293/hPRLR cells was assessed via FACS analysis. Briefly, 1×10^5 cells were incubated with 10 μg/ml of Control antibody I, or an isotype control for 30 min on ice in antibody dilution buffer. Following two washes with antibody dilution buffer, cells were incubated with 10 μg/ml of PE conjugated anti-human secondary antibodies for 30 min on ice. Following two additional washes, samples were run on a Hypercyt® cytometer and analyzed in ForeCyt™ (IntelliCyt, Albuquerque, N. Mex.). The mean fluorescence intensities (MFI) were expressed as fold change above isotype control levels (background). FACS binding confirmed that Control I selectively bound to 293/hPRLR expressing cells with MFIs that were 30 fold above background (isotype ctrl) levels and less than 2 fold binding on parental cells.
(§3) Next, the anti-PRLR antibodies were tested via FACS for selective binding to the engineered overexpressing PRLR HEK293 cell lines, as well as to non-expressing HEK293 cells and a native PRLR expressing cell line (T47D).

The target in experiment [1] is T1, native PRLR expressing T47D cells (Homo sapiens, UniProt P16471).
T1 construct: a native PRLR expressing cell line (T47D); endogenous in cells; host or cells: T47D
T1 sequence (P16471 25-622): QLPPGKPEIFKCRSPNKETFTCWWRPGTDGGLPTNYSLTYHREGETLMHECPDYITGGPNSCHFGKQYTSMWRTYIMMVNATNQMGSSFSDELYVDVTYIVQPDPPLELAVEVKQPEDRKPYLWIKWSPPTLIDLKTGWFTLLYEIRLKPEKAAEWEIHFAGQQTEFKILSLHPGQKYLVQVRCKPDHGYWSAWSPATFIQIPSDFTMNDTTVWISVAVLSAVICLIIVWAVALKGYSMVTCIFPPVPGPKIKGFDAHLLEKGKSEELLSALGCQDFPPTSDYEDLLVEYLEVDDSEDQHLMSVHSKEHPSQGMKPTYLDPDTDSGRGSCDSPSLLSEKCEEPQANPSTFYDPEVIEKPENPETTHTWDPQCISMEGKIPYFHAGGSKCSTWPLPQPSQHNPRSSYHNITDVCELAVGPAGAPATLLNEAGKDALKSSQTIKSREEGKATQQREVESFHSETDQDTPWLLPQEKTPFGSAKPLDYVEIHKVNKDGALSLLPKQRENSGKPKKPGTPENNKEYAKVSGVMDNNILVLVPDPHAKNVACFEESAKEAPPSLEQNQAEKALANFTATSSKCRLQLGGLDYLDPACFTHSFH
Kind of experiment: FACS cell surface binding. On the procedure: as §2, §3

Experiment [2] addresses T2, dimeric human PRLR (hPRLR.mFc; SEQ ID NO:402) (Homo sapiens, UniProt P16471).
T2 construct: dimeric (hPRLR.mFc)
Kind of experiment: Surface plasmon resonance (Biacore T200), antibody-capture format. It counts as binding. The conditions noted are these: analyte hPRLR.mFc. On the procedure: (§4) Antibodies, expressed as human IgG1 Fc (i.e., “H1H” designations), were captured onto an anti-human Fc sensor surface (mAb-capture format), and soluble monomeric (hPRLR.mmh; SEQ ID NO:401, or Macaca fascicularis (mf) PRLR.mmh; SEQ ID NO:403) or dimeric (hPRLR.mFc; SEQ ID NO:402) PRLR protein was injected over the sensor surface. Measurements were conducted on a T200 Biacore instrument. Kinetic association (ka) and dissociation (kd) rate constants were determined by processing and fitting the data to a 1:1 binding model using Scrubber 2.0 curve fitting software.
(In general: Surface plasmon resonance follows binding to a sensor surface in real time, without labels.)

Experiment [3] addresses T3, monomeric human PRLR (hPRLR.mmh; SEQ ID NO:401) (Homo sapiens, UniProt P16471).
T3 construct: soluble monomeric (hPRLR.mmh); mmh (myc-myc-hexahistidine) (C)
The description is as above. Type of experiment: binding. The settings on record: analyte hPRLR.mmh. On the procedure: as §4

Experiment [4] deals with Macaca fascicularis PRLR (mfPRLR.mmh; SEQ ID NO:403). Described as above. Type of experiment: binding. The conditions noted are these: analyte mfPRLR.mmh. On the procedure:
as §4

Experiment [5] deals with T4, human PRLR on HEK293/hPRLR cells (Homo sapiens, UniProt P16471).
T4 construct: HA; expressed in transfected cells; host or cells: HEK293
T4 sequence (P16471 25-622): T1 sequence (P16471 25-622)
Briefly: FACS cell surface binding. On the procedure:
as §1, §2, §3

Experiment [6] deals with T5, mouse PRLR on HEK293/mPRLR cells (Mus musculus, UniProt Q08501).
T5 construct: HA; expressed in transfected cells; host or cells: HEK293
T5 sequence (Q08501 20-608): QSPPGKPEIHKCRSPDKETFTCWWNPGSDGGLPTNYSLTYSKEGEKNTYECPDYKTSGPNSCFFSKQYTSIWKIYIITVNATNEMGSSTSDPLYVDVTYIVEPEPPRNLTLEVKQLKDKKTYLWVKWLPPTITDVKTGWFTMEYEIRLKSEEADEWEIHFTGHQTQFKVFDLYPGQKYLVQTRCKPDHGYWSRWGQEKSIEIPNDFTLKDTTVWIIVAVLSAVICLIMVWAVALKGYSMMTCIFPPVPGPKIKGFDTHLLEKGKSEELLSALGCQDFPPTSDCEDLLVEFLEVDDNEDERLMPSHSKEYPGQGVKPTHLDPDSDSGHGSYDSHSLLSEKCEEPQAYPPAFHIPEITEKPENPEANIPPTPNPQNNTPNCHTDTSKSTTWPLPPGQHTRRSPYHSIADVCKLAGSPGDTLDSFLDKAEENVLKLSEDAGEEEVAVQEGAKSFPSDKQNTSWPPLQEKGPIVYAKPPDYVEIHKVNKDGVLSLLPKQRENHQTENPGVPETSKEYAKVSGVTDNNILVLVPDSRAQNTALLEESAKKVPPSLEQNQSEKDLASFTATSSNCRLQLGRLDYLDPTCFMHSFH
Briefly: FACS cell surface binding. On the procedure: as §1, §2, §3

The target of experiment [7] is T6, monkey PRLR on HEK293/mfPRLR cells (Macaca fascicularis, UniProt A0A2K5WXK1).
T6 construct: HA; expressed in transfected cells; host or cells: HEK293
T6 sequence (A0A2K5WXK1 25-619): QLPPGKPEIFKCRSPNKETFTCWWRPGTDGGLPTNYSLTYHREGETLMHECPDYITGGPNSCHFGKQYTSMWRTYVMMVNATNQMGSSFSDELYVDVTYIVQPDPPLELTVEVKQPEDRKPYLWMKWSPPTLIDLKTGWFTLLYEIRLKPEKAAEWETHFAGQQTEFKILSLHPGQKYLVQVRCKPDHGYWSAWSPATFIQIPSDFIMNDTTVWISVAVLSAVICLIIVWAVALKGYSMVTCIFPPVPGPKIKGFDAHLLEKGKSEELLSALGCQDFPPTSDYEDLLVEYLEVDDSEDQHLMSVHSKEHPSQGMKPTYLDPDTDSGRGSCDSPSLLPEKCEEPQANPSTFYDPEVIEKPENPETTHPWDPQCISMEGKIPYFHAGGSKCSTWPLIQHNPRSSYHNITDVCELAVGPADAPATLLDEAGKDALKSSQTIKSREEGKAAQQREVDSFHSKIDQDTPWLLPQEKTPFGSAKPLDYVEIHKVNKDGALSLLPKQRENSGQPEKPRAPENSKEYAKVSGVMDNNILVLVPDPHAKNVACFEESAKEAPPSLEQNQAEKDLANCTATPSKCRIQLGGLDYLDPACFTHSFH
Kind of experiment: FACS cell surface binding. The procedure: as §1, §2, §3

Where a chain is given by its changes, count along the chain named.

T3 sequence (P16471 with tags, fused parts or gaps): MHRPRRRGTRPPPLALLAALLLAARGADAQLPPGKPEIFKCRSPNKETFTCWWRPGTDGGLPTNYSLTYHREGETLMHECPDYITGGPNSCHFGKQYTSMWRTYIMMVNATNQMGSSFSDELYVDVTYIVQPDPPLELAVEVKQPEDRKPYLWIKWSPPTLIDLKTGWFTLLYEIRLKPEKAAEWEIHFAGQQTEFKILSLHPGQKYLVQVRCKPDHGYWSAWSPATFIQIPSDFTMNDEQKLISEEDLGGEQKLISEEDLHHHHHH
Macaca fascicularis PRLR (mfPRLR.mmh; SEQ ID NO:403), sequence (as listed by the source): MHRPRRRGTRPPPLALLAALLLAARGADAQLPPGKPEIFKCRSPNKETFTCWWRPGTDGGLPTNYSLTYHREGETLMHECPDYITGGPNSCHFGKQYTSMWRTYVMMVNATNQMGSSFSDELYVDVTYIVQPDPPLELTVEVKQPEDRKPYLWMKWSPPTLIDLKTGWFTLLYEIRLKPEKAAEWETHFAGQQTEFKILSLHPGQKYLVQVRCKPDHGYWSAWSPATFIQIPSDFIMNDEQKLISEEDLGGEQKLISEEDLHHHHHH
T2 sequence (P16471 with tags, fused parts or gaps): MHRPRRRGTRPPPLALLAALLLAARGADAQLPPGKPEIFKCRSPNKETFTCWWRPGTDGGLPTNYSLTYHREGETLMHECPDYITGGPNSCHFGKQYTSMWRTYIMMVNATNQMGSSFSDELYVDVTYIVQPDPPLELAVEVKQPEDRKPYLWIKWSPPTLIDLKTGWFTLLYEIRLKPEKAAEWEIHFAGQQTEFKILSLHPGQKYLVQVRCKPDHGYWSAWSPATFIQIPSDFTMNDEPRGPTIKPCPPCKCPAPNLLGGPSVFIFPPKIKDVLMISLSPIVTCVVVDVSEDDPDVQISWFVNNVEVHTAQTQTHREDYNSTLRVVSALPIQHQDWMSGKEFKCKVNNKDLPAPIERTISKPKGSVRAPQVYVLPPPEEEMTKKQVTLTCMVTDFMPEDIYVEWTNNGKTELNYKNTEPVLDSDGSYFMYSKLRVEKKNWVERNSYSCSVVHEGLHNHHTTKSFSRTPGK

B1: H1H6966N: anti-PRLR antibody, human IgG1 Fc form of H2M6966N of Table 1; HCVR/LCVR SEQ ID NOs 338/346 (antibody, V domains shown)
VH: QVQLVQSGAEVQKPGASVKVSCKVSGYTLTALSIHWVRQAPGKGLEWMGNFDPGDGETIHAQKFQGRVTMTGDTSTDTAYMELSSLRSEDTAVYYCVGVTFDYWGQGTLVTVSS
VL: EIVMTQSPATLSVSPGERATLSCRASQSVASNLAWYQQKPGQAPRLLLYGASTRATGIPARFSGSGSGTEFTLTISSLQSEDFALYYCQHYNNWPLTFGGGTKVEIK
modifications: human IgG1 Fc
For B1, the “FACS Cell Binding” value in the experiment with HEK293 parental cells stood at 1 Fold Above Background; in experiment [1], 31 Fold Above Background; in experiment [5] it was 29 Fold Above Background; in experiment [6] it was 1 Fold Above Background; in experiment [7], 18 Fold Above Background. Moreover, the ka amounted to 931000 M/s in experiment [2] (25° C.); 1.88e+06 M/s in experiment [2] (37° C.); 852000 M/s in experiment [3] (25° C.); 1.58e+06 M/s in experiment [3] (37° C.); 782000 M/s in experiment [4] (25° C.); 1.22e+06 M/s in experiment [4] (37° C.). Besides, the kd in experiment [2] (25° C.) turned out to be 4.08e-05 s⁻¹; in experiment [2] (37° C.) it was 0.000127 s⁻¹; in experiment [3] (25° C.), 0.000257 s⁻¹; in experiment [3] (37° C.), 0.00096 s⁻¹; in experiment [4] (25° C.), 0.000325 s⁻¹; in experiment [4] (37° C.), 0.0012 s⁻¹.

B2: H1H6967N: anti-PRLR antibody, human IgG1 Fc form of H2M6967N of Table 1; HCVR/LCVR SEQ ID NOs 354/362 (antibody, V domains shown)
VH: EVQLVESGGDLVHPGRSLRLSCAASGFPFDEYAMHWVRQVPGKGLEWVSGISWSNNNIGYADSVKGRFTISRDNAKNSLYLQMNSLRPEDTAFYYCAKSGIFDSWGQGTLVTVSS
VL: B1 VL with A30S, S31R, N32D, L48I, Y49H, T69A, T74I, L85V, H90Q
modifications: human IgG1 Fc
Take B2: the “FACS Cell Binding” value in the experiment on HEK293 parental cells is recorded as 1 Fold Above Background; in experiment [1], 41 Fold Above Background; in experiment [5], 38 Fold Above Background; in experiment [6], 2 Fold Above Background; in experiment [7], 28 Fold Above Background. For the same molecule, the ka turned out to be 407000 M/s in experiment [2] (25° C.); 907000 M/s in experiment [2] (37° C.); 246000 M/s in experiment [3] (25° C.); 424000 M/s in experiment [3] (37° C.); 190000 M/s in experiment [4] (25° C.); 356000 M/s in experiment [4] (37° C.). The kd in experiment [2] (25° C.) stood at 4.45e-05 s⁻¹; in experiment [2] (37° C.), 9.73e-05 s⁻¹; in experiment [3] (25° C.) it was 0.000332 s⁻¹; in experiment [3] (37° C.) it was 0.000933 s⁻¹; in experiment [4] (25° C.), 0.000585 s⁻¹; in experiment [4] (37° C.) it was 0.00162 s⁻¹.

B3: H1H6960N: anti-PRLR antibody, human IgG1 Fc form of H2M6960N of Table 1; HCVR/LCVR SEQ ID NOs 322/330 (antibody, V domains shown)
VH: EVQLVESGGGLVKPGGSLRLSCAASGITFSSYSMNWVRQAPGKGLEWVSSISTRSSLIHYADSVKGRFTISRDNAKNSLYLQMNSLRDEDTAVYYCARWDAAAAFDYWGQGTLVIVSS
VL: DIQLTQSPSFLSASVGDRVTITCWASQGISSYLAWYQQKPGKAPKLLIYVASTLQSGVPSRFSGSGSGTEFTLTISSLQPEDFATYFCQQLNSYPLTFGGGTKVEIK
modifications: human IgG1 Fc
Regarding B3, the “FACS Cell Binding” value with HEK293 parental cells is reported as 1 Fold Above Background; in experiment [1], 33 Fold Above Background; in experiment [5] it was 29 Fold Above Background; in experiment [6] it was 1 Fold Above Background; in experiment [7] it was 23 Fold Above Background. Also, the ka in experiment [2] (25° C.) worked out at 252000 M/s; in experiment [2] (37° C.) it was 294000 M/s; in experiment [3] (25° C.), 108000 M/s; in experiment [3] (37° C.), 122000 M/s; in experiment [4] (25° C.) it was 94000 M/s; in experiment [4] (37° C.), 86400 M/s. For the same molecule, the kd in experiment [2] (25° C.) is 3.56e-05 s⁻¹; in experiment [2] (37° C.), 0.000147 s⁻¹; in experiment [3] (25° C.) it was 0.000729 s⁻¹; in experiment [3] (37° C.) it was 0.00198 s⁻¹; in experiment [4] (25° C.), 0.000583 s⁻¹; in experiment [4] (37° C.), 0.00128 s⁻¹.

The values are drawn from patent US10925971B2, “Methods of treating PRLR positive breast cancer” (Regeneron Pharmaceuticals, Inc., priority 2016, dated 2021).
